According to the Immune Epitope Database (IEDB):

Assays:
HLA-B*08:01 [1] = test: IEDB peptide-MHC binding, purified MHC/competitive/fluorescence; filed as Kd, often an IC50 or EC50 that approximates it; ≥ and ≤ were set here for values at or beyond the usual limits of such assays; conditions: source organism: Bacillus anthracis str. A0488
HLA-C*14:02 = test: IEDB peptide-MHC binding, purified MHC/direct/fluorescence; filed as Kd, often an IC50 or EC50 that approximates it; ≥ and ≤ were set here for values at or beyond the usual limits of such assays
HLA-A*02:01 [2] = test: IEDB peptide-MHC binding, purified MHC/competitive/fluorescence; ≥ and ≤ were set here for values at or beyond the usual limits of such assays
HLA-A*11:01 [3] = test: as above
HLA-A*03:01 [4] = test: as above
HLA-A*01:01 [5] = test: as above
HLA-B*40:01 = test: IEDB peptide-MHC binding, purified MHC/direct/fluorescence; filed as Kd, often an IC50 or EC50 that approximates it; ≥ and ≤ were set here for values at or beyond the usual limits of such assays
HLA-B*08:01 [6] = test: as above
HLA-A*26:01 [7] = test: as above
HLA-A*24:03 = test: as above
HLA-B*27:05 [8] = test: as above
HLA-A*02:01 [9] = test: as above
HLA-A*11:01 [10] = test: as above
HLA-A*30:01 = test: as above
HLA-A*69:01 = test: as above
HLA-B*07:02 [11] = test: as above
HLA-A*03:01 [12] = test: as above
HLA-A*01:01 [13] = test: as above
HLA-B*58:01 = test: as above
HLA-C*12:03 = test: as above
HLA-C*06:02 = test: as above
HLA-C*03:03 = test: as above; conditions: source organism: Bacillus mycoides KBAB4
HLA-C*07:02 = test: as above
HLA-B*08:02 = test: as above; conditions: source organism: dengue virus type 4
HLA-A*02:01 [14] = test: IEDB peptide-MHC binding, purified MHC/competitive/fluorescence; filed as Kd, often an IC50 or EC50 that approximates it; ≥ and ≤ were set here for values at or beyond the usual limits of such assays
HLA-C*15:02 = test: IEDB peptide-MHC binding, purified MHC/direct/fluorescence; filed as Kd, often an IC50 or EC50 that approximates it; ≥ and ≤ were set here for values at or beyond the usual limits of such assays; conditions: source organism: Cytophaga hutchinsonii ATCC 33406
HLA-B*07:02 [15] = test: IEDB peptide-MHC binding, purified MHC/competitive/fluorescence; ≥ and ≤ were set here for values at or beyond the usual limits of such assays
HLA-B*46:01 = test: IEDB peptide-MHC binding, purified MHC/competitive/fluorescence; filed as Kd, often an IC50 or EC50 that approximates it; ≥ and ≤ were set here for values at or beyond the usual limits of such assays
HLA-A*31:01 = test: IEDB peptide-MHC binding, purified MHC/direct/fluorescence; filed as Kd, often an IC50 or EC50 that approximates it; ≥ and ≤ were set here for values at or beyond the usual limits of such assays
HLA-B*15:01 [16] = test: as above
HLA-A*24:02 = test: IEDB peptide-MHC binding, purified MHC/competitive/fluorescence; ≥ and ≤ were set here for values at or beyond the usual limits of such assays; conditions: source organism: Zaire ebolavirus
HLA-B*15:01 [17] = test: as above; conditions: source organism: Zaire ebolavirus
HLA-B*18:01 = test: IEDB peptide-MHC binding, purified MHC/competitive/fluorescence; filed as Kd, often an IC50 or EC50 that approximates it; ≥ and ≤ were set here for values at or beyond the usual limits of such assays; conditions: source organism: Orthohantavirus sinnombreense
HLA-A*26:01 [18] = test: as above; conditions: source organism: Orthohantavirus sinnombreense
HLA-B*27:05 [19] = test: as above; conditions: source organism: Orthohantavirus sinnombreense
HLA-B*15:17 = test: as above; conditions: source organism: Orthohantavirus sinnombreense
HLA-B*51:01 = test: as above; conditions: source organism: Orthohantavirus sinnombreense
HLA-B*57:01 = test: as above; conditions: source organism: Orthohantavirus sinnombreense
HLA-B*39:01 = test: as above; conditions: source organism: Orthohantavirus sinnombreense
HLA-B*15:01 [20] = test: as above; conditions: source organism: Orthohantavirus sinnombreense
HLA-A*02:12 = test: IEDB peptide-MHC binding, purified MHC/direct/fluorescence; filed as Kd, often an IC50 or EC50 that approximates it; ≥ and ≤ were set here for values at or beyond the usual limits of such assays; conditions: source organism: Limestone Canyon virus
HLA-A*02:11 = test: as above; conditions: source organism: Limestone Canyon virus
HLA-A*02:16 = test: as above; conditions: source organism: Limestone Canyon virus
HLA-A*02:19 = test: as above; conditions: source organism: Limestone Canyon virus
HLA-A*68:02 = test: as above; conditions: source organism: Limestone Canyon virus
HLA-A*02:03 = test: as above; conditions: source organism: Limestone Canyon virus
[21] = source organism: Vaccinia virus
[22] = source organism: Pseudomonas aeruginosa UCBPP-PA14
[23] = source organism: Pseudomonas aeruginosa
[24] = source organism: Zaire ebolavirus
[25] = source organism: Bacillus mycoides KBAB4
[26] = source organism: Dengue virus 2 Jamaica/1409/1983
[27] = source organism: Giardia lamblia ATCC 50803
[28] = source organism: West Nile virus
[29] = source organism: Orthohantavirus sinnombreense
[30] = source organism: Limestone Canyon virus

Sequence: AANMYIYPL
- Kd (HLA-B*08:01 [1]): 1.1 µM
- Kd (HLA-C*14:02; source organism: Bacillus anthracis str. A0488): 0.057 µM

Sequence: AVDRGCLRI
- IC50 (HLA-A*02:01 [2]; [21]): 3.51 µM
- IC50 (HLA-A*11:01 [3]; [21]): 11.8 µM
- IC50 (HLA-A*03:01 [4]; [21]): 16.1 µM
- IC50 (HLA-A*01:01 [5]; [21]): ≥ 183 µM

Sequence: AYGSRFHEW
- Kd (HLA-B*40:01; [22]): ≥ 20 µM
- Kd (HLA-B*08:01 [6]; [22]): ≥ 20 µM
- Kd (HLA-A*26:01 [7]; [22]): ≥ 20 µM
- Kd (HLA-A*24:03; [23]): 0.00184 µM
- Kd (HLA-B*27:05 [8]; [22]): ≥ 20 µM
- Kd (HLA-A*02:01 [9]; [22]): ≥ 20 µM
- Kd (HLA-A*11:01 [10]; [22]): ≥ 20 µM
- Kd (HLA-A*30:01; [23]): ≥ 31.6 µM
- Kd (HLA-A*69:01; [22]): ≥ 20 µM
- Kd (HLA-B*07:02 [11]; [22]): ≥ 20 µM
- Kd (HLA-A*03:01 [12]; [22]): ≥ 20 µM
- Kd (HLA-A*01:01 [13]; [22]): ≥ 20 µM
- Kd (HLA-B*58:01; [23]): 4.7 µM

Sequence: AYVTWIALM
- Kd (HLA-C*14:02; source organism: Mus musculus): 0.027 µM

Sequence: DSDNTQSEH
- IC50 (HLA-A*01:01 [5]; [24]): ≥ 84.2 µM

Sequence: FAFCRITSF
- Kd (HLA-C*12:03; [25]): ≤ 0.001 µM
- Kd (HLA-C*06:02; [25]): 1.08 µM
- Kd (HLA-C*03:03): 0.002 µM

Sequence: FRKKRLTIM
- Kd (HLA-C*06:02; [26]): 0.018 µM
- Kd (HLA-C*07:02; [26]): 0.446 µM
- Kd (HLA-B*08:02): 4.43 µM

Sequence: GLADAFILL
- Kd (HLA-A*02:01 [14]; source organism: Cytophaga hutchinsonii ATCC 33406): 0.0006 µM
- Kd (HLA-C*15:02): ≥ 20 µM

Sequence: IPSSSPTTA
- IC50 (HLA-B*07:02 [15]; source organism: Sudan ebolavirus): 22.1 µM

Sequence: KQYNVTQAF
- Kd (HLA-B*46:01; source organism: SARS-CoV1): 0.0652 µM
- Kd (HLA-A*31:01; source organism: SARS-CoV1): 0.449 µM
- Kd (HLA-B*40:01; source organism: SARS-CoV1): 5.33 µM
- Kd (HLA-C*14:02; source organism: SARS-CoV1): 0.002 µM
- Kd (HLA-B*27:05 [8]; source organism: SARS-CoV1): 0.538 µM
- Kd (HLA-A*02:01 [9]; source organism: SARS-CoV1): ≥ 51.3 µM
- Kd (HLA-A*11:01 [10]; source organism: SARS-CoV1): ≥ 28.4 µM
- Kd (HLA-A*03:01 [12]; source organism: SARS-CoV1): 6.35 µM
- Kd (HLA-B*58:01; source organism: SARS-CoV1): 1.01 µM
- Kd (HLA-B*15:01 [16]; source organism: SARS-CoV1): 0.0871 µM

Sequence: KVGVYKMHK
- Kd (HLA-A*31:01; [27]): 0.0552 µM
- Kd (HLA-B*40:01; [27]): ≥ 20 µM
- Kd (HLA-B*08:01 [6]; [27]): ≥ 20 µM
- Kd (HLA-A*26:01 [7]; [27]): ≥ 20 µM
- Kd (HLA-A*24:03; [27]): ≥ 20 µM
- Kd (HLA-B*27:05 [8]; [27]): ≥ 20 µM
- Kd (HLA-A*02:01 [9]; [27]): ≥ 20 µM
- Kd (HLA-A*11:01 [10]; [27]): 0.0334 µM
- Kd (HLA-A*30:01; [27]): 0.0152 µM
- Kd (HLA-A*69:01; [27]): ≥ 20 µM
- Kd (HLA-B*07:02 [11]; [27]): ≥ 20 µM
- Kd (HLA-A*03:01 [12]; [27]): 0.163 µM
- Kd (HLA-A*01:01 [13]; [27]): ≥ 20 µM
- Kd (HLA-B*58:01; [27]): ≥ 20 µM
- Kd (HLA-B*15:01 [16]; [27]): ≥ 20 µM

Sequence: LSGVNNLEH
- IC50 (HLA-A*11:01 [3]; [24]): 5.06 µM
- IC50 (HLA-A*03:01 [4]; [24]): 43.5 µM
- IC50 (HLA-A*01:01 [5]; [24]): ≥ 167 µM

Sequence: RTFSIPLGV
- IC50 (HLA-A*02:01 [2]; [24]): 0.321 µM
- IC50 (HLA-A*24:02): 33 µM
- IC50 (HLA-A*11:01 [3]; [24]): 1.62 µM
- IC50 (HLA-B*07:02 [15]; [24]): ≥ 167 µM
- IC50 (HLA-A*03:01 [4]; [24]): 3.46 µM
- IC50 (HLA-B*15:01 [17]): ≥ 221 µM

Sequence: SLYAVTTAV
- Kd (HLA-A*02:01 [14]; [28]): 0.00137 µM
- Kd (HLA-C*12:03; [28]): 0.027 µM

Sequence: YRTLGVFRY
- Kd (HLA-B*18:01): ≥ 20 µM
- Kd (HLA-A*26:01 [18]): ≥ 20 µM
- Kd (HLA-B*27:05 [19]): 0.144 µM
- Kd (HLA-A*02:01 [14]; [29]): ≥ 20 µM
- Kd (HLA-B*15:17): ≥ 20 µM
- Kd (HLA-B*46:01; [29]): ≥ 20 µM
- Kd (HLA-B*51:01): ≥ 20 µM
- Kd (HLA-B*57:01): ≥ 20 µM
- Kd (HLA-B*39:01): ≥ 20 µM
- Kd (HLA-B*15:01 [20]): ≥ 20 µM
- Kd (HLA-A*02:12): ≥ 20 µM
- Kd (HLA-A*24:03; [30]): ≥ 20 µM
- Kd (HLA-A*02:11): ≥ 20 µM
- Kd (HLA-A*02:16): ≥ 20 µM
- Kd (HLA-A*02:19): ≥ 20 µM
- Kd (HLA-A*03:01 [12]; [30]): ≥ 20 µM
- Kd (HLA-A*68:02): ≥ 20 µM
- Kd (HLA-A*02:03): ≥ 20 µM
- Kd (HLA-C*07:02; [29]): 0.048 µM

Sequence: YTSGKRSNT
- IC50 (HLA-A*02:01 [2]; [24]): ≥ 354 µM
- IC50 (HLA-B*07:02 [15]; [24]): 5.9 µM
